Positions count from the first letter of the chain named. Where two headings read alike, the source gives them in different places. One block for each binder: values may come before it.
What was measured:
[1] = target: T1, human insulin receptor (IR) on human IM-9 cells (human, UniProt P06213 28-1382); test: competition with biotinylated RHI on IM-9 cells, flow cytometry, 4 C
T1 construct: whole, on cells; also called human IR
Experimental: (§1) 40 µL of an IM-9 cell suspension (8×10⁶ cells/mL) was then added to each well by multichannel pipette, mixed again gently and incubated on ice for 30 min to allow competitive binding on the IR on IM-9 cells. Cells were then washed twice with 275µL of ice-cold FACS wash buffer (HBSS/2mM EDTA/0.1% Na-azide + 0.5% horse serum) by centrifuging the V-bottom plate at 3000 rpm for 3 min and aspirating the supernatant. Cells were then resuspended in 40µL of FACS staining medium containing 1:100 diluted Streptavidin-PE (Life Technologies) for 20 min on ice. Cells were then washed once with 275 µL of ice-cold FACS buffer and finally fixed with 3% paraformaldehyde for 10 min at room temp. Cells were then washed once with 275 µL of ice-cold FACS buffer and resuspended in 250µl of FACS buffer for analysis.
(§2) The insulin-Fc fusion proteins were manufactured in HEK293 cells according to Example 1 and purified using a Protein A column according to Example 4. Their structures were confirmed according to Example 6 by non-reducing and reducing CE-SDS, and the sequences were further identified by LC-MS with glycan removal according to Example 8. Their %homodimer content was measured by size-exclusion chromatography according to Example 10, and their insulin receptor binding affinities were measured according to Example 12.

[2] = target: T1, human insulin receptor (IR) on human …; test: as above; remark: listed apart in the source
Experimental: as §1, §2

[3] = target: T2, biotinylated recombinant human Fc(gamma)RI (human, UniProt P12314 16-288, biotinylated, site not stated); test: ELISA, fusion protein coated, biotinylated rhFc(gamma)RI at 3000 ng/mL
T2 construct: Bought reagent; construct not described; also called rhFc(gamma)RI; Fc(gamma) receptor I
Experimental: (§3) The binding of insulin-Fc fusion proteins to the Fc(gamma)RI at pH 7.4 is conducted using an ELISA assay as follows using human Fc(gamma)RI (i.e., rhFc(gamma)RI). Insulin-Fc fusion proteins are diluted to 10 µg/mL in sodium bicarbonate buffer at pH 9.6 and coated on Maxisorp (Nunc) microtiter plates overnight at 4° C., after which the microplate strips are washed 5 times with PBST (PBS/0.05% Tween-20) buffer and blocked with Superblock blocking reagent (ThermoFisher). Serial dilutions of biotinylated rhFc(gamma)RI (recombinant human Fc(gamma)RI; R&D Systems) are prepared in PBST/10% Superblock buffer from 3000 ng/mL to 4.1 ng/mL and loaded at 100 µL/well onto the microplate strips coated with insulin-Fc fusion protein. The microtiter plate is incubated for 1 hour at room temperature after which time the microplate strips are washed 5 times with PBST and then loaded with 100 µL/well of streptavidin-HRP diluted 1:10000 in PBST/10% Superblock buffer. After incubating for 45 min, the microplate strips are washed again 5 times with PBST. TMB is added to reveal the bound Fc(gamma)RI proteins and is stopped with ELISA stop reagent (Boston Bioproducts). The plate is read in an ELISA plate reader at 450 nm, and the OD450 values (proportional to the binding of rhFc(gamma)RI to insulin-Fc protein) are plotted against log concentrations of rhFc(gamma)RI added to each well to generate binding curves using GraphPad Prism software. For groupings of compounds with somewhat similar curves, the OD450 at one of the higher concentrations, for instance at rhFc(gamma)RI concentrations of 3000 ng/mL, can be used to identify differences between coated insulin-Fc fusion protein compounds. […]
Finally, select compounds were tested for their likelihood to interact with the immune system by measuring their Fc(gamma) receptor binding activity according to the procedure of Example 15.

[4] = target: T1, human insulin receptor (IR) on human …; test: competition with biotinylated RHI on IM-9 cells, flow cytometry, 4 C; remark: listed apart in the source
Experimental: as §1, §2

[5] = target: T2, biotinylated recombinant human …; test: ELISA, fusion protein coated, biotinylated rhFc(gamma)RI in solution
[6] = target: T2, biotinylated recombinant human …; test: as above; remark: listed apart in the source
Experimental: as §3

[7] = target: T1, human insulin receptor (IR) on human …; test: competition with biotinylated RHI on IM-9 cells, flow cytometry, 4 C; remark: listed apart in the source
Experimental: as §1
The lack of in vivo potency for the insulin-Fc fusion protein of SEQ ID NO: 43 correlates with its high IC50 (shown in Table 9 below) as measured by the insulin receptor binding assay according to the method of Example 12.

T1 sequence (P06213 28-1382): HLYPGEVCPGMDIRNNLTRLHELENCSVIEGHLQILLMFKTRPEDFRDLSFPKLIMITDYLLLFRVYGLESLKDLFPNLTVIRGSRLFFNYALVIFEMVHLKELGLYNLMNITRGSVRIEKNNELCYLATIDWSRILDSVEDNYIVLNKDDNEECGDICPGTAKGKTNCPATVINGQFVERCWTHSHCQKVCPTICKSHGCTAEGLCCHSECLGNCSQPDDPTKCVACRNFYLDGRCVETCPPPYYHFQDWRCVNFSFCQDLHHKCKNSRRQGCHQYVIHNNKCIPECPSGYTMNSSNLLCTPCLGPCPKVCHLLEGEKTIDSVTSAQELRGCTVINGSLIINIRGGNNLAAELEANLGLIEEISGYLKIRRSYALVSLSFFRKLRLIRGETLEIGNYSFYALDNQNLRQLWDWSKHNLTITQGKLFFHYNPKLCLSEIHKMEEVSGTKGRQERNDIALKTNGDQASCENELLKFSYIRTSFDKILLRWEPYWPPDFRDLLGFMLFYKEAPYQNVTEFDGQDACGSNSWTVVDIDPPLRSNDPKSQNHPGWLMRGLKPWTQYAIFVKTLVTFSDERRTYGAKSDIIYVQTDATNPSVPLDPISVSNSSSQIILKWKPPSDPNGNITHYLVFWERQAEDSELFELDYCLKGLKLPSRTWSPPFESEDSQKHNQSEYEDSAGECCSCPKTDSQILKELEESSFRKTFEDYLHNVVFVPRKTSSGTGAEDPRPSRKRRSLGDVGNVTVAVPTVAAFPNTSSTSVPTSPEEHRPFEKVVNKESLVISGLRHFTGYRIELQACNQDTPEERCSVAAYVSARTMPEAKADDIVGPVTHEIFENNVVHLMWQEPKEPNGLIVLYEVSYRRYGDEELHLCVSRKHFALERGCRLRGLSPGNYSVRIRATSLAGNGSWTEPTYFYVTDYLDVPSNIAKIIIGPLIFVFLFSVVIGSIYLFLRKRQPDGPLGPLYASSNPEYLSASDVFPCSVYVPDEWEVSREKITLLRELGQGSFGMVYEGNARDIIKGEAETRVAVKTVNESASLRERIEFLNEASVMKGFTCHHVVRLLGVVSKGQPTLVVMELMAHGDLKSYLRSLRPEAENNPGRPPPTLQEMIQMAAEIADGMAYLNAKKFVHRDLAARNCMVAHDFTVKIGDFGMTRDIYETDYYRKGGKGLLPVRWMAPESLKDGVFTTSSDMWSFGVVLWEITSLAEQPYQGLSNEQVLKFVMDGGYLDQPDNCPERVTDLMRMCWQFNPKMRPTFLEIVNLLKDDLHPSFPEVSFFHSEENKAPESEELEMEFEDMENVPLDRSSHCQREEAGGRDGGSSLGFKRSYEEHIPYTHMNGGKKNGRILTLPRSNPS
T2 sequence (P12314 16-288 limits assumed): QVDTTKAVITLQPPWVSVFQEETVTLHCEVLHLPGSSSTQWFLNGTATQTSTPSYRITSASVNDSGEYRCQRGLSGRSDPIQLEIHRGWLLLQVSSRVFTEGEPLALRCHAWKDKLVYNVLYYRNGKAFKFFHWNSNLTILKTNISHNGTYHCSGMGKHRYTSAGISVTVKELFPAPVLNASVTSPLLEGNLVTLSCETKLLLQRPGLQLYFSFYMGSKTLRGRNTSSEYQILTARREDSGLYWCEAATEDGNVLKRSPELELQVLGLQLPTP

B1: insulin-Fc fusion protein of SEQ ID NO: 49 (Fc fusion)
chain: FVNQHLCGSHLVQALYLVCGERGFFYTDPTQRGGGGGQRGIVEQCCTSICSLYQLENYCGGGGAGGGGDCPKCPAPEMLGGPSVFIFPPKPKDTLLIARTPEVTCVVVDLDPEDPEVQISWFVDGKQMQTAKTQPREEQFSGTYRVVSVLPIGHQDWLKGKQFTCKVNNKALPSPIERTISKARGQAHQPSVYVLPPSREELSKNTVSLTCLIKDFFPPDIDVEWQSNGQQEPESKYRTTPPQLDEDGSYFLYSKLSVDKSRWQRGDTFICAVMHEALHNHYTQESLSHSPG
IC50 [1]: 4180 nM

B2: insulin-Fc fusion protein of SEQ ID NO: 50 (Fc fusion)
chain: FVNQHLCGSHLVEALALVCGERGFFYTDPTGGGGGGSGGGGGIVEQCCTSICSLYQLENYCGGGGAGGGGDCPKCPAPEMLGGPSVFIFPPKPKDTLLIARTPEVTCVVVDLDPEDPEVQISWFVDGKQMQTAKTQPREEQFSGTYRVVSVLPIGHQDWLKGKQFTCKVNNKALPSPIERTISKARGQAHQPSVYVLPPSREELSKNTVSLTCLIKDFFPPDIDVEWQSNGQQEPESKYRTTPPQLDEDGSYFLYSKLSVDKSRWQRGDTFICAVMHEALHNHYTQESLSHSPG
IC50 [1]: 1610 nM

B4: insulin-Fc fusion protein of SEQ ID NO: 62 (Fc fusion)
chain: FVNQHLCGSHLVEALELVCGERGFHYGGGGGGSGGGGGIVEQCCTSTCSLDQLENYCGGGGGQGGGGQGGGGQGGGGGDCPKCPAPEMLGGPSVFIFPPKPKDTLLIARTPEVTCVVVDLDPEDPEVQISWFVDGKQMQTAKTQPREEQFSGTYRVVSVLPIGHQDWLKGKQFTCKVNNKALPSPIERTISKARGQAHQPSVYVLPPSREELSKNTVSLTCLIKDFFPPDIDVEWQSNGQQEPESKYRTTPPQLDEDGSYFLYSKLSVDKSRWQRGDTFICAVMHEALHNHYTQESLSHSPG
notes: 71% homodimer
IC50 [2]: 2300 nM
OD450nm [3]: 0.175
OD450nm minus assay background [3]: 0.118
ratio to SEQ ID NO: 36 [3]: 0.32

B7: insulin-Fc fusion protein of SEQ ID NO: 51 (Fc fusion)
chain: FVNQHLCGSHLVEALALVCGERGFFYTDPGGGGGGGGGIVEQCCTSICSLYQLENYCGGGGAGGGGDCPKCPAPEMLGGPSVFIFPPKPKDTLLIARTPEVTCVVVDLDPEDPEVQISWFVDGKQMQTAKTQPREEQFSGTYRVVSVLPIGHQDWLKGKQFTCKVNNKALPSPIERTISKARGQAHQPSVYVLPPSREELSKNTVSLTCLIKDFFPPDIDVEWQSNGQQEPESKYRTTPPQLDEDGSYFLYSKLSVDKSRWQRGDTFICAVMHEALHNHYTQESLSHSPG
IC50 [4]: 1920 nM

B8: insulin-Fc fusion protein of SEQ ID NO: 56 (Fc fusion)
chain: FVNQHLCGSHLVEALELVCGERGFHYGGGGGGSGGGGGIVEQCCTSTCSLDQLENYCNHGGGGQGGGGQGGGGQGGGGGDCPKCPAPEMLGGPSVFIFPPKPKDTLLIARTPEVTCVVVDLDPEDPEVQISWFVDGKQMQTAKTQPREEQFNGTYRVVSVLPIGHQDWLKGKQFTCKVNNKALPSPIERTISKARGQAHQPSVYVLPPSREELSKNTVSLTCLIKDFFPPDIDVEWQSNGQQEPESKYRTTPPQLDEDGSYFLYSKLSVDKSRWQRGDTFICAVMHEALHNHYTQESLSHSPG
notes: Combined variant, canine IgGB Fc with native cNg
IC50 [1]: 554 nM

B9: insulin-Fc fusion protein of SEQ ID NO: 28 (Fc fusion)
chain: B8 chain with H59G
IC50 [1]: 1250 nM

B10: insulin-Fc fusion protein of SEQ ID NO: 40 (Fc fusion)
chain: FVNQHLCGSDLVEALALVCGERGFFYTDPTGGGPRRGIVEQCCHSICSLYQLENYCNGGGGAGGGGDCPKCPAPEMLGGPSVFIFPPKPKDTLLIARTPEVTCVVVDLDPEDPEVQISWFVDGKQMQTAKTQPREEQFSGTYRVVSVLPIGHQDWLKGKQFTCKVNNKALPSPIERTISKARGQAHQPSVYVLPPSREELSKNTVSLTCLIKDFFPPDIDVEWQSNGQQEPESKYRTTPPQLDEDGSYFLYSKLSVDKSRWQRGDTFICAVMHEALHNHYTQESLSHSPG
notes: non-glycosylated
fold lower Fc(gamma)RI binding against SEQ ID NO: 36 [5]: 4 fold
OD450nm [6]: 0.14
OD450nm minus assay background [6]: 0.077
ratio to SEQ ID NO: 36 [6]: 0.24

B11: insulin-Fc fusion protein of SEQ ID NO: 42 (Fc fusion)
chain: B10 chain with S139K
notes: non-glycosylated
OD450nm [6]: 0.126
OD450nm minus assay background [6]: 0.063
ratio to SEQ ID NO: 36 [6]: 0.2

B12: insulin-Fc fusion protein of SEQ ID NO: 44 (Fc fusion)
chain: FVNQHLCGSHLVQALYLVCGERGFFYTDPTGGGPRRGIVEQCCTSICSLYQLENYCGGGGAGGGGDCPKCPAPEMLGGPSVFIFPPKPKDTLLIARTPEVTCVVVDLDPEDPEVQISWFVDGKQMQTAKTQPREEQFSGTYRVVSVLPIGHQDWLKGKQFTCKVNNKALPSPIERTISKARGQAHQPSVYVLPPSREELSKNTVSLTCLIKDFFPPDIDVEWQSNGQQEPESKYRTTPPQLDEDGSYFLYSKLSVDKSRWQRGDTFICAVMHEALHNHYTQESLSHSPG
IC50 [7]: 2620 nM

B14: insulin-Fc fusion protein of SEQ ID NO: 47 (Fc fusion)
chain: B12 chain with Q13E, Y16A, F25Y
IC50 [7]: 2400 nM

B15: insulin-Fc fusion protein of SEQ ID NO: 45 (Fc fusion)
chain: B12 chain with H10E, Q13E, Y16A
IC50 [7]: 633 nM

Other lines, results leading:

IC50 [1]: 3870 nM
B3: insulin-Fc fusion protein of SEQ ID NO: 55 (Fc fusion)
chain: B4 chain with H25F, G27T, G28P, G29K, G30T, S151N

IC50 [2]: 3090 nM
OD450nm [3]: 0.166
OD450nm minus assay background [3]: 0.109
ratio to SEQ ID NO: 36 [3]: 0.29
B5: insulin-Fc fusion protein of SEQ ID NO: 61 (Fc fusion)
chain: B4 chain with D119A
notes: 73% homodimer

IC50 [1]: 2040 nM
B6: insulin-Fc fusion protein of SEQ ID NO: 57 (Fc fusion)
chain: B4 chain with H25F, S151N

IC50 [1]: 4720 nM
IC50 [4]: 1930 nM
B13: insulin-Fc fusion protein of SEQ ID NO: 52 (Fc fusion)
chain: B12 chain with Q13E, Y16A, D28P, P29G, T30G, P34G, R35G, R36G

IC50 [4]: 2200 nM
B16: insulin-Fc fusion protein of SEQ ID NO: 54 (Fc fusion)
chain: B12 chain with Q13E, Y16A, D28Q, P29G, T30G, P34G, R35G, R36G
